Experimental data as given in patent US20140105889A1 (published 2014).
Where a chain is given by its changes, count along the chain named.

Tests used:
FcγRIIb [1] = biological target: T1, FcγRIIb (human, UniProt P31994 43-217, limits assumed); assay: ratio of SPR KD values of this variant (FcγRIIaH over FcγRIIb)
T1 construct: also called FcγIIB; FcgRIIb
T1 sequence: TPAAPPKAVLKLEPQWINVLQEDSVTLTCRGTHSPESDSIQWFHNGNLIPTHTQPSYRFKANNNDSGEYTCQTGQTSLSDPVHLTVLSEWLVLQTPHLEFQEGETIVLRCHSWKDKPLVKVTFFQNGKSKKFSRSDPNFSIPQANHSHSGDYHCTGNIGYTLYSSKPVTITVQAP
From the text: (§1) Furthermore, KD(IIaR)/KD(IIb) and KD(IIaH)/KD(IIb) in the table respectively represent the value obtained by dividing the KD value of each variant for FcγRIIaR by the KD value of each variant for FcγRIIb, and the value obtained by dividing the KD value of each variant for FcγRIIaH by the KD value of each variant for FcγRIIb.

FcγRIIb [2] = biological target: T1, FcγRIIb; assay: ratio of SPR KD values of this variant (FcγRIIaR over FcγRIIb)
From the text: as §1

FcγRIIa type H = biological target: T2, FcγRIIa type H (human, UniProt P12318 36-217); assay: SPR (Biacore), captured antibody, FcγR as analyte, method of Example 14
T2 construct: also called FcγRIIaH; FcγRIIa(H)
T2 sequence: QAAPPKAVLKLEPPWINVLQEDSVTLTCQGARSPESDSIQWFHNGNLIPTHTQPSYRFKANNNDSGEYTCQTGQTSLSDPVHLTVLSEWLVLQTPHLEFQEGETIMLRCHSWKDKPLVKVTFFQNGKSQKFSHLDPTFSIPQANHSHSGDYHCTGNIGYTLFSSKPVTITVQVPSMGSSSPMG

[3] = biological target: T3, human FcγRIIa type H (allotype H131) (human, UniProt P12318 36-217); assay: SPR (Biacore), antibody captured on the chip, FcγR as analyte
T3 construct: also called FcγRIIaH; FcγRIIa(H)
T3 sequence: T2 sequence

[4] = biological target: T4, human FcγRIIIa type V (allotype V158) (human, UniProt P08637 17-208, limits assumed); assay: as above
T4 construct: the assay used allotype V158; also called FcγRIIIaV; FcγRIIIa(V)
T4 sequence (P08637 other isoform, or with tags, fused parts or gaps limits assumed): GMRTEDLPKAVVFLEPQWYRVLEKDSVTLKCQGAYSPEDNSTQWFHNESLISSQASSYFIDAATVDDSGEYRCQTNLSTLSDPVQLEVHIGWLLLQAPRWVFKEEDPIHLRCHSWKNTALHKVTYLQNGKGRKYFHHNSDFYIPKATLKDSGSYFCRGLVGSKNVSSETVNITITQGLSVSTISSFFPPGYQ

human FcγRIIb [5] = biological target: T5, human FcγRIIb (human, UniProt P31994 43-217); assay: SPR (Biacore); KD of parent IL6R-B3/IL6R-L for FcγRIIb divided by KD of the variant for FcγRIIb
T5 construct: also called FcγIIB
T5 sequence: T1 sequence
From the text: as §1

mouse FcγRIV = biological target: T6, mouse FcγRIV (mouse); assay: SPR (Biacore), antibody captured on Protein L, mouse FcγR as analyte, pH 7.4, 25 C
T6 construct: Bought soluble receptor; also called mFcgRIV; mFcgR IV
T6 sequence (A0A0B4J1G0 21-203): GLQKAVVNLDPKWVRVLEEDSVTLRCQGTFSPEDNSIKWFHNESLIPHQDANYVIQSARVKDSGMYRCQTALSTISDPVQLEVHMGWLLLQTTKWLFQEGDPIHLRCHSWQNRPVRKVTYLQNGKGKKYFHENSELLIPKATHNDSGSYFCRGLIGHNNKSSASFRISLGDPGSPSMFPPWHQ
Method: Binding activity between the antibodies and mouse FcγRI, FcγRII, FcγRIII and FcγRIV (R&D Systems, Sin θ Biological) (hereinafter referred to as mouse FcγRs) was evaluated using the Biacore T100 or T200 (GE Healthcare). The antibodies being tested were captured by Protein L (ACTIGEN) that was immobilized in suitable amounts on the CM4 Sensor Chip (GE Healthcare) by amine coupling. Next, the diluted mouse FcγRs and a running buffer used as a blank were injected to allow interaction with the antibody captured on the sensor chip. A buffer consisting of 20 mmol/L ACES, 150 mmol/L NaCl and 0.05% (w/v) Tween 20 (pH 7.4) was used for the running buffer, and this buffer was also used to dilute the mouse FcγRs. 10 mmol/L glycine-HCl (pH 1.5) was used to regenerate the sensor chip. All measurements were carried out at 25° C.

FcγRIIIa type V = biological target: T7, FcγRIIIa type V (human, UniProt P08637 17-208, limits assumed); assay: SPR (Biacore), antibody captured on chip, FcγR as analyte, method of Example 14
T7 construct: Soluble analyte in Biacore; also called FcγRIIIaV; FcγRIIIa(V)
T7 sequence (P08637 other isoform, or with tags, fused parts or gaps limits assumed): as the sequence (P08637 other isoform, or with tags, fused parts or gaps limits assumed) above

human FcRn = biological target: T8, human FcRn (human); assay: SPR (Biacore), pH 7.0, 25 C, antibody captured by Protein L, human FcRn as analyte
T8 construct: also called hFcRn; soluble human FcRn complexed with β2-microglobulin
T8 sequence (chain, as listed by the source limits assumed, chain 1 of 2): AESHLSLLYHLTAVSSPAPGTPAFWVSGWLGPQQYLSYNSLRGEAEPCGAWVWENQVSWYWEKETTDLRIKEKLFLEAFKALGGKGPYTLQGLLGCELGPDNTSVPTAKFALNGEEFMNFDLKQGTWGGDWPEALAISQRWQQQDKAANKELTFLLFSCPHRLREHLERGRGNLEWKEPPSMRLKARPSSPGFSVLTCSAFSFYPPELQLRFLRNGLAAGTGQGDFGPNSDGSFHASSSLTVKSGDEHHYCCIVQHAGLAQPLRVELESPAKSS
T8 sequence (P61769 21-119 limits assumed, chain 2 of 2): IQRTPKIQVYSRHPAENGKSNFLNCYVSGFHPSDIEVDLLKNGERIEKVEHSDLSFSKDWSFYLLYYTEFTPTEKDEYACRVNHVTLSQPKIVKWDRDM
Method: A kinetic analysis of binding between human FcRn and the aforementioned antibodies was carried out using the Biacore T100 or T200 (GE Healthcare). The antibodies being tested were captured on the CM4 Sensor Chip (GE Healthcare) on which a suitable amount of Protein L (ACTIGEN) was suitably immobilized by amine coupling. Next, diluted human FcRn and a running buffer used as a blank were injected to allow the human FcRn to interact with the antibody captured on the sensor chip. A buffer consisting of 50 mmol/L sodium phosphate, 150 mmol/L NaCl and 0.05% (w/v) Tween 20 (pH 7.0 or pH 7.4) was used for the running buffer, and each buffer was also used to dilute the human FcRn. 10 mmol/L glycine-HCl (pH 1.5) was used to regenerate the sensor chip. All measurements of binding were carried out at 25° C. The KD(M) of each antibody to human FcRn was calculated based on kinetics parameters, i.e., the association rate constant ka (1/Ms) and the dissociation rate constant kd (1/s) calculated from a sensorgram obtained by the measurement. The Biacore T100 or T200 Evaluation Software (GE Healthcare) was used to calculate each parameter.

human FcγRIIb [6] = biological target: T9, human FcγRIIb (human, UniProt P31994 43-217, limits assumed); assay: SPR KD for FcγRIIb of parent IL6R-B3/IL6R-L divided by that of this variant
T9 construct: also called FcγIIB; hFcgRIIb
T9 sequence: T1 sequence
From the text: as §1

B1: IL6R-BP148/IL6R-L (antibody, human IgG1)
heavy: QVQLQESGPGLVKPSETLSLTCAVSGHSISHDHAWSWVRQPPGEGLEWIGFISYSGITNYNPSLQGRVTISRDNSKNTLYLQMNSLRAEDTAVYYCARSLARTTAMDYWGEGTLVTVSSASTKGPSVFPLAPSSKSTSGGTAALGCLVKDYFPEPVTVSWNSGALTSGVHTFPAVLQSSGLYSLSSVVTVPSSSLGTQTYICNVNHKPSNTKVDKKVEPKSCDKTHTCPPCPAPDYLGDDSVFLFPPKPKDTLMISRTPEVTCVVVDVSHEDPEVKFNWYVDGVEVHNAKTKPREEQYNSTYRVVSVLTVLHQDWLNGKEYKCKVSNAALPKPIEKTISKAKGQPREPQVYTLPPSRDELTKNQVSLTCLVKGFYPSDIAVEWESNGQPENNYKTTPPVLDSDGSFFLYSKLTVDKSRWQQGNVFSCSVMHEALHNHYTQESLSLSP
light: DIQMTQSPSSLSASVGDRVTITCRASQDISSYLNWYQQKPGKAPKLLIYYTSRLHSGVPSRFSGSGSGTDFTFTISSLQPEDIATYYCQQGNTLPYTFGQGTKVEIK
notes: EU numbering
- KD (IIaH)/KD (IIb) (FcγRIIb [1]): 93.8
- KD (IIaR)/KD (IIb) (FcγRIIb [2]): 14.5
- Kd (FcγRIIa type H): 9000 nM

B2: IL6R-BP194/IL6R-L (antibody, human IgG1)
heavy: B1 heavy with H270D, P273G
light: B1 light
notes: Anti-human IL-6 receptor human IgG1 variant; copies: 2 + 2
- Kd [3]: 6.5 µM
- Kd [4]: 27 µM
- KD(IIb) of the parent polypeptide/KD(IIb) of the altered polypeptide (human FcγRIIb [5]): 59.4

B3: IL6R-BP184/IL6R-L (antibody, human IgG1)
heavy: B1 heavy with Y236L, D239G, P273G, A328K
light: B1 light
notes: as for B2
- Kd [3]: 3 µM
- Kd [4]: 66 µM
- KD(IIb) of the parent polypeptide/KD(IIb) of the altered polypeptide (human FcγRIIb [5]): 24.5

B4: IL6R-BP201/IL6R-L (antibody, human IgG1)
heavy: B1 heavy with Y236L, P273G, A328K, K332R
light: B1 light
notes: as for B2
- Kd [3]: 6.9 µM
- KD(IIb) of the parent polypeptide/KD(IIb) of the altered polypeptide (human FcγRIIb [5]): 77.1

B5: IL6R-BP202/IL6R-L (antibody, human IgG1)
heavy: B1 heavy with D235E, Y236L, P273G, K332R
light: B1 light
notes: as for B2
- Kd [3]: 9.2 µM
- KD(IIb) of the parent polypeptide/KD(IIb) of the altered polypeptide (human FcγRIIb [5]): 48.4

B6: IL6R-BP189/IL6R-L (antibody, human IgG1)
heavy: B1 heavy with D235E, Y236L, H270D, P273G
light: B1 light
notes: as for B2
- Kd [3]: 2.1 µM
- Kd [4]: 49 µM
- KD(IIb) of the parent polypeptide/KD(IIb) of the altered polypeptide (human FcγRIIb [5]): 41.8

B7: IL6R-BP151/IL6R-L (antibody, human IgG1)
heavy: B1 heavy with K332R
light: B1 light
notes: EU numbering
- KD (IIaH)/KD (IIb) (FcγRIIb [1]): 118
- KD (IIaR)/KD (IIb) (FcγRIIb [2]): 16.9

B8: IL6R-BP181/IL6R-L (antibody, human IgG1)
heavy: B1 heavy with Y236L, D239G, P273G
light: B1 light
notes: EU numbering
- KD (IIaH)/KD (IIb) (FcγRIIb [1]): 182
- KD (IIaR)/KD (IIb) (FcγRIIb [2]): 20.3
- Kd (FcγRIIa type H): 2600 nM

B9: IL6R-BP177/IL6R-L (antibody, human IgG1)
heavy: B1 heavy with P273G, A328D
light: B1 light
notes: EU numbering
- KD (IIaH)/KD (IIb) (FcγRIIb [1]): 159
- KD (IIaR)/KD (IIb) (FcγRIIb [2]): 13.6
- Kd (FcγRIIa type H): 6200 nM

B10: IL6R-BP178/IL6R-L (antibody, human IgG1)
heavy: B1 heavy with Y236L, P273G, A328K
light: B1 light
notes: EU numbering
- KD (IIaH)/KD (IIb) (FcγRIIb [1]): 272
- KD (IIaR)/KD (IIb) (FcγRIIb [2]): 18.1
- Kd (FcγRIIa type H): 1400 nM

B11: IL6R-BP150/IL6R-L (antibody, human IgG1)
heavy: B1 heavy with D235E, K332R
light: B1 light
notes: EU numbering
- KD (IIaH)/KD (IIb) (FcγRIIb [1]): 109
- KD (IIaR)/KD (IIb) (FcγRIIb [2]): 17.7

B12: IL6R-BP176/IL6R-L (antibody, human IgG1)
heavy: B1 heavy with Y236L, D239G, A328D
light: B1 light
notes: EU numbering
- KD (IIaH)/KD (IIb) (FcγRIIb [1]): 83.1
- KD (IIaR)/KD (IIb) (FcγRIIb [2]): 19.1
- Kd (FcγRIIa type H): 3000 nM

B13: antibody with VH3-IgG1-F821 heavy chain and L(WT)-CK light chain (antibody)
heavy: QVQLQESGPGLVKPSETLSLTCAVSGHSISHDHAWSWVRQPPGEGLEWIGFISYSGITNYNPSLQGRVTISRDNSKNTLYLQMNSLRAEDTAVYYCARSLARTTAMDYWGEGTLVTVSSASTKGPSVFPLAPSSKSTSGGTAALGCLVKDYFPEPVTVSWNSGALTSGVHTFPAVLQSSGLYSLSSVVTVPSSSLGTQTYICNVNHKPSNTKVDKKVEPKSCDKTHTCPPCPAPELRGGPKVFLFPPKPKDTLYISRTPEVTCVVVDVSHEDPEVKFNWYVDGVEVHNAKTKPREEQYNSTYRVVSVLTVLHQDWLNGKEYKCKVSNKALPAPIEKTISKAKGQPREPQVYTLPPSRDELTKNQVSLTCLVKGFYPSDIAVEWESNGQPENNYKTTPPVLDSDGSFFLYSKLTVDKSRWQQGNVFSCSVMHEALHYHYTQKSLSLSP
light: not shown
notes: copies: 2 + 2
- BINDING AMOUNT (RU) (mouse FcγRIV): -3.8 RU

B14: IL6R-BP206/IL6R-L (antibody, human IgG1)
heavy: B1 heavy with Y236L, D239G, P273G, A328K, K332R
light: B1 light
notes: Anti-human IL-6 receptor IgG1 Fc variant
- Kd (FcγRIIIa type V): 69 µM

B15: F1099 (antibody, human IgG1, kappa, name in EU numbering)
heavy: B13 heavy with R237L, K241S, K328D, L330Y
light: not shown
notes: copies: 2 + 2
- Kd (human FcRn): 257 nM

B16: antibody with VH3-IgG1-F939 heavy chain and L(WT)-CK light chain (antibody)
heavy: B13 heavy with Y438V
light: not shown
notes: copies: 2 + 2
- BINDING AMOUNT (RU) (mouse FcγRIV): -7.3 RU

B17: F1060 (antibody, human IgG1, kappa, name in EU numbering)
heavy: B13 heavy with R237L, K241S, Q388S, Y438V
light: not shown
notes: copies: 2 + 2
- Kd (human FcRn): 143 nM

B18: IL6R-BP133/IL6R-L (antibody, human IgG1)
heavy: B1 heavy with D239G, A328K
light: B1 light
notes: copies: 2 + 2
- KD(IIb) of the parent polypeptide/KD(IIb) of the altered polypeptide (human FcγRIIb [6]): 5.5

B19: F1072 (antibody, name in EU numbering)
heavy: B13 heavy with R237L, K241S, Y438V, S442E
light: not shown
notes: copies: 2 + 2
- Kd (human FcRn): 135 nM

B20: antibody with VH3-IgG1-F1009 heavy chain and L(WT)-CK light chain (antibody)
heavy: B13 heavy with T252V, T309Q, V310P, Q313A, Y438V
light: not shown
notes: copies: 2 + 2
- BINDING AMOUNT (RU) (mouse FcγRIV): 7.2 RU

B21: F1078 (antibody, human IgG1, kappa, name in EU numbering)
heavy: B13 heavy with R237L, K241S, E382N, E384S
light: not shown
notes: copies: 2 + 2
- Kd (human FcRn): 470 nM

B22: antibody with VH3-IgG1-F890 heavy chain and L(WT)-CK light chain (antibody)
heavy: B13 heavy with R237L, K241S, Y438V
light: not shown
notes: copies: 2 + 2
- BINDING AMOUNT (RU) (mouse FcγRIV): 230 RU

B23: F1071 (antibody, human IgG1, kappa, name in EU numbering)
heavy: B13 heavy with R237L, K241S, Y438V, Q440S
light: not shown
notes: copies: 2 + 2
- Kd (human FcRn): 124 nM

B24: F1076 (antibody, human IgG1, kappa, name in EU numbering)
heavy: B13 heavy with R237L, K241D, K328D, L330Y, Y438V
light: not shown
notes: copies: 2 + 2
- Kd (human FcRn): 127 nM

B25: IL6R-BP203/IL6R-L (antibody, human IgG1)
heavy: B1 heavy with D235E, Y236L, P273G, A328K, K332R
light: B1 light
notes: as for B14
- Kd (FcγRIIIa type V): 72 µM

B26: IL6R-BP211/IL6R-L (antibody, human IgG1)
heavy: B1 heavy with Y236L, D239G, H270D, P273G, K332R
light: B1 light
notes: as for B14
- Kd (FcγRIIIa type V): 75 µM

B27: F1079 (antibody, human IgG1, kappa, name in EU numbering)
heavy: B13 heavy with R237L, K241S, E384N, N386S
light: not shown
notes: copies: 2 + 2
- Kd (human FcRn): 344 nM
